The record followed here is PMC11144241, “Nutrient levels control root growth responses to high ambient temperature in plants”.

For this series, the target named is T1, HY5 (Arabidopsis thaliana, UniProt O24646 1-168).
T1 sequence: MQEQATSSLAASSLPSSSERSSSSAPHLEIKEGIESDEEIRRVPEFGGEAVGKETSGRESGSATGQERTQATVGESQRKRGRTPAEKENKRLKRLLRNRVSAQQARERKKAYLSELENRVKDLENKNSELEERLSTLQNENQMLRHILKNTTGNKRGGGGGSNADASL
The experiment in a line: EMSA; EMSA according to manufacturer's protocol (Thermofisher); buffer, salt, pH and temperature not stated. To be noted: protein: recombinant; tags: GST (pDEST15, N-terminal); label: biotin 3' end; blunt. On the technique in general: A gel shift assay detects complexes by their altered migration in electrophoresis.

B1: pNRT1.1-EMSA (G-box probe, NRT1.1 promoter) (dsDNA)
DNA 1: GAGTCACACATGTGTCACTT
DNA 2: AAGTGACACATGTGTGACTC
With B1, the binding result is given as “binds”.
